Measured values: patent US20230220589A1
One block for each binder: values may come before it.

Columns and labels:
[1] = target: M17-modified A NTAA target peptides; assay: encoding assay; P2 F;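 also: fraction of recording tags encoded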
[2] = target: M17-modified D NTAA target peptides; assay: encoding assay; P2 F;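 also: fraction of recording tags encoded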
[3] = target: M17-modified E NTAA target peptides; assay: encoding assay; P2 F;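 also: fraction of recording tags encoded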
[4] = target: M17-modified F NTAA target peptides; assay: encoding assay; P2 F;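 also: fraction of recording tags encoded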
[5] = target: M17-modified G NTAA target peptides; assay: encoding assay; P2 F;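 also: fraction of recording tags encoded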
[6] = target: M17-modified H NTAA target peptides; assay: encoding assay; P2 F;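 also: fraction of recording tags encoded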
[7] = target: M17-modified I NTAA target peptides; assay: encoding assay; P2 F;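 also: fraction of recording tags encoded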
[8] = target: M17-modified L NTAA target peptides; assay: encoding assay; P2 F;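 also: fraction of recording tags encoded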
[9] = target: M17-modified M NTAA target peptides; assay: encoding assay; P2 F;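 also: fraction of recording tags encoded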
[10] = target: M17-modified N NTAA target peptides; assay: encoding assay; P2 F;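 also: fraction of recording tags encoded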
[11] = target: M17-modified P NTAA target peptides; assay: encoding assay; P2 F;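 also: fraction of recording tags encoded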
[12] = target: M17-modified Q NTAA target peptides; assay: encoding assay; P2 F;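 also: fraction of recording tags encoded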
[13] = target: M17-modified T NTAA target peptides; assay: encoding assay; P2 F;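 also: fraction of recording tags encoded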
[14] = target: M17-modified V NTAA target peptides; assay: encoding assay; P2 F;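 also: fraction of recording tags encoded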
[15] = target: M17-modified W NTAA target peptides; assay: encoding assay; P2 F;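 also: fraction of recording tags encoded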
[16] = target: M17-modified Y NTAA target peptides (M17-Y-P2-peptide); assay: encoding assay; P2 F;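 also: fraction of recording tags encoded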
[17] = target: M17-modified A NTAA target peptides; assay: encoding assay; P2 P;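 also: fraction of recording tags encoded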
[18] = target: M17-modified D NTAA target peptides; assay: encoding assay; P2 P;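 also: fraction of recording tags encoded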
[19] = target: M17-modified E NTAA target peptides; assay: encoding assay; P2 P;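 also: fraction of recording tags encoded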
[20] = target: M17-modified F NTAA target peptides; assay: encoding assay; P2 P;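 also: fraction of recording tags encoded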
[21] = target: M17-modified G NTAA target peptides; assay: encoding assay; P2 P;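 also: fraction of recording tags encoded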
[22] = target: M17-modified H NTAA target peptides; assay: encoding assay; P2 P;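 also: fraction of recording tags encoded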
[23] = target: M17-modified I NTAA target peptides; assay: encoding assay; P2 P;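 also: fraction of recording tags encoded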
[24] = target: M17-modified L NTAA target peptides; assay: encoding assay; P2 P;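 also: fraction of recording tags encoded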
[25] = target: M17-modified M NTAA target peptides; assay: encoding assay; P2 P;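 also: fraction of recording tags encoded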
[26] = target: M17-modified N NTAA target peptides; assay: encoding assay; P2 P;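 also: fraction of recording tags encoded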
[27] = target: M17-modified P NTAA target peptides; assay: encoding assay; P2 P;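 also: fraction of recording tags encoded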
[28] = target: M17-modified Q NTAA target peptides; assay: encoding assay; P2 P;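 also: fraction of recording tags encoded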
[29] = target: M17-modified S NTAA target peptides; assay: encoding assay; P2 P;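 also: fraction of recording tags encoded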
[30] = target: M17-modified T NTAA target peptides; assay: encoding assay; P2 P;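 also: fraction of recording tags encoded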
[31] = target: M17-modified V NTAA target peptides; assay: encoding assay; P2 P;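 also: fraction of recording tags encoded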
[32] = target: M17-modified W NTAA target peptides; assay: encoding assay; P2 P;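 also: fraction of recording tags encoded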
[33] = target: M17-modified Y NTAA target peptides (M17-Y-P2-peptide); assay: encoding assay; P2 P;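 also: fraction of recording tags encoded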
[34] = target: M17-modified A NTAA target peptides; assay: encoding assay; P2 Y;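 also: fraction of recording tags encoded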
[35] = target: M17-modified D NTAA target peptides; assay: encoding assay; P2 Y;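 also: fraction of recording tags encoded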
[36] = target: M17-modified E NTAA target peptides; assay: encoding assay; P2 Y;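 also: fraction of recording tags encoded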
[37] = target: M17-modified F NTAA target peptides; assay: encoding assay; P2 Y;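 also: fraction of recording tags encoded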
[38] = target: M17-modified H NTAA target peptides; assay: encoding assay; P2 Y;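 also: fraction of recording tags encoded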
[39] = target: M17-modified I NTAA target peptides; assay: encoding assay; P2 Y;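 also: fraction of recording tags encoded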
[40] = target: M17-modified L NTAA target peptides; assay: encoding assay; P2 Y;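 also: fraction of recording tags encoded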
[41] = target: M17-modified M NTAA target peptides; assay: encoding assay; P2 Y;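 also: fraction of recording tags encoded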
[42] = target: M17-modified N NTAA target peptides; assay: encoding assay; P2 Y;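 also: fraction of recording tags encoded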
[43] = target: M17-modified P NTAA target peptides; assay: encoding assay; P2 Y;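 also: fraction of recording tags encoded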
[44] = target: M17-modified Q NTAA target peptides; assay: encoding assay; P2 Y;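 also: fraction of recording tags encoded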
[45] = target: M17-modified S NTAA target peptides; assay: encoding assay; P2 Y;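 also: fraction of recording tags encoded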
[46] = target: M17-modified T NTAA target peptides; assay: encoding assay; P2 Y;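 also: fraction of recording tags encoded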
[47] = target: M17-modified W NTAA target peptides; assay: encoding assay; P2 Y;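 also: fraction of recording tags encoded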
[48] = target: M17-modified Y NTAA target peptides (M17-Y-P2-peptide); assay: encoding assay; P2 Y;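 also: fraction of recording tags encoded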
[49] = target: M44-modified G NTAA target peptides (M44-G-P2-peptide); assay: encoding assay; P2 P;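 also: fraction of recording tags encoded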
[50] = target: M44-modified P NTAA target peptides; assay: encoding assay; P2 P;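 also: fraction of recording tags encoded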
[51] = target: M44-modified T NTAA target peptides; assay: encoding assay; P2 P;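 also: fraction of recording tags encoded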
[52] = target: M44-modified V NTAA target peptides; assay: encoding assay; P2 P;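 also: fraction of recording tags encoded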
[53] = target: M44-modified W NTAA target peptides; assay: encoding assay; P2 P;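 also: fraction of recording tags encoded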
[54] = target: M44-modified S NTAA target peptides; assay: encoding assay; P2 Y

- encoding yield [1]: 0.02
- encoding yield [2]: 0.02
- encoding yield [3]: 0.04
- encoding yield [4]: 0.07
- encoding yield [5]: 0.03
- encoding yield [6]: 0.03
- encoding yield [7]: 0.06
- encoding yield [8]: 0.04
- encoding yield [9]: 0.03
- encoding yield [10]: 0.02
- encoding yield [11]: 0.01
- encoding yield [12]: 0.02
- encoding yield [13]: 0.02
- encoding yield [14]: 0.02
- encoding yield [15]: 0.05
- encoding yield [16]: 0.2
- encoding yield [17]: 0.02
- encoding yield [18]: 0.02
- encoding yield [19]: 0.02
- encoding yield [20]: 0.12
- encoding yield [21]: 0.01
- encoding yield [22]: 0.03
- encoding yield [23]: 0.06
- encoding yield [24]: 0.05
- encoding yield [25]: 0.03
- encoding yield [26]: 0.01
- encoding yield [27]: 0.01
- encoding yield [28]: 0.02
- encoding yield [29]: 0.02
- encoding yield [30]: 0.01
- encoding yield [31]: 0.02
- encoding yield [32]: 0.02
- encoding yield [33]: 0.16
- encoding yield [34]: 0.01
- encoding yield [35]: 0.03
- encoding yield [36]: 0.01
- encoding yield [37]: 0.09
- encoding yield [38]: 0.06
- encoding yield [39]: 0.1
- encoding yield [40]: 0.1
- encoding yield [41]: 0.04
- encoding yield [42]: 0.03
- encoding yield [43]: 0.03
- encoding yield [44]: 0.01
- encoding yield [45]: 0.01
- encoding yield [46]: 0.04
- encoding yield [47]: 0.07
- encoding yield [48]: 0.15
B1: engineered M17-Y binder (SEQ ID NO: 61) (designed binder, not shown: small tags and cut ends; large carriers)
chain: TVPDRSEIAGKWYVVALASNTEFYLREKDWVKSAMARISFLGEDELKVSSAVPSPNGCYKVERTWKKTSDDGEVYNSRAAKLKVEVLDTDYKSYAVIYATRVKDGRTDHQMILYSRSPEVSPAATAIFRKLAGERNYTDEMVAMLPRQEECTVDEV

- encoding yield [1]: 0.04
- encoding yield [2]: 0.02
- encoding yield [3]: 0.04
- encoding yield [4]: 0.1
- encoding yield [5]: 0.04
- encoding yield [6]: 0.04
- encoding yield [7]: 0.06
- encoding yield [8]: 0.05
- encoding yield [9]: 0.05
- encoding yield [10]: 0.03
- encoding yield [11]: 0.02
- encoding yield [12]: 0.03
- encoding yield [13]: 0.03
- encoding yield [14]: 0.02
- encoding yield [15]: 0.11
- encoding yield [16]: 0.28
- encoding yield [17]: 0.02
- encoding yield [18]: 0.03
- encoding yield [19]: 0.02
- encoding yield [20]: 0.12
- encoding yield [21]: 0.02
- encoding yield [22]: 0.04
- encoding yield [23]: 0.07
- encoding yield [24]: 0.08
- encoding yield [25]: 0.03
- encoding yield [26]: 0.02
- encoding yield [27]: 0.01
- encoding yield [28]: 0.02
- encoding yield [29]: 0.04
- encoding yield [30]: 0.02
- encoding yield [31]: 0.03
- encoding yield [32]: 0.11
- encoding yield [33]: 0.28
- encoding yield [34]: 0.03
- encoding yield [35]: 0.03
- encoding yield [36]: 0.03
- encoding yield [37]: 0.1
- encoding yield [38]: 0.06
- encoding yield [39]: 0.12
- encoding yield [40]: 0.11
- encoding yield [41]: 0.02
- encoding yield [42]: 0.02
- encoding yield [43]: 0.05
- encoding yield [44]: 0.01
- encoding yield [45]: 0.01
- encoding yield [46]: 0.04
- encoding yield [47]: 0.12
- encoding yield [48]: 0.21
B2: upgraded binder after additional maturation round (SEQ ID NO: 62) (designed binder, not shown: small tags and cut ends; large carriers)
chain: TVPDRSEIAGKWYVVALASNTEFYLRGKDRVKSAMVRISFQGEDELKVSSAVPSPNGCYKVERTWKKTSDDGEVYNSRAAKLKVEVLDTDYKSYAVIYATRVKDRRTDHQMILYSRSPDVSPAATAIFRKLAGERNYTDEMVAMLPRQEECTVDEV

- encoding yield [49]: 0.01
- encoding yield [50]: 0.01
- encoding yield [51]: 0.01
- encoding yield [52]: 0.01
- encoding yield [53]: 0.01
- encoding yield [54]: 0.01
B3: engineered M44-A binder (SEQ ID NO: 42) (designed binder, not shown: small tags and cut ends; large carriers)
chain: QVSVQPNFQQDKFLGRWFVAGLASNSSWDREKVAALSGAKMVVAPATDGGLNVTRTMLRKNQCETYTGLLQPAGSLGSYSWRSPHPGSTGSESVVETDYDQYALVYGQGSKGPGEDLRAAALWSRTQTPRAELKEKFTAFSKAQGFTEDTIVFLPQTDKCMTEQ

- encoding yield [49]: 0.01
- encoding yield [50]: 0.01
- encoding yield [51]: 0.01
- encoding yield [52]: 0.02
- encoding yield [53]: 0.04
- encoding yield [54]: 0.01
B4: engineered M44-L binder (SEQ ID NO: 31) (designed binder, not shown: small tags and cut ends; large carriers)
chain: QDSTQNLIPAPPLISVPLQPGFWTERFQGRWFLVGFAGNAVQKERQSRLTMQSLILELQEDNSYNITAINVRGQGCRYIISTLVPSSRPGQFTLGNIHSYPQIQSLDVQVADTDYDQFAMVFLQGTSENKQYFEVALAGRTKGLSDELKERFVSFAKSLGLKDNNIVFSVPTDQCIDN
